B1: Version 5: humanized 2G7, ArgH71Ala, AlaH49Gly, PheH67Ala; SEQ ID Nos. 3 and 4 (antibody, V domains shown)
VL: DIQMTQSPSSLSASVGDRVTITCRASQSVLYSSNQKNYLAWYQQKPGKAPKLLIYWASTRESGVPSRFSGSGSGTDFTLTISSLQPEDFATYYCHQYLSSDTFGQGTKVEIKRTVA
VH: EVQLVESGGGLVQPGGSLRLSCAASGYAFTNYLIEWVRQAPGKGLEWVGVNNPGSGGSNYNEKFKGRATISADNSKNTLYLQMNSLRAEDTAVYYCARSGGFYFDYWGQGTLVTVSSASTKGPS
modifications: Sequence is synthesized
B2: V5H.g1L2: Same as Version 5 except the CDR L2 is reverted to human germline kappa locus sequence YASSLQS (antibody, V domains shown)
VH: EVQLVESGGGLVQPGGSLRLSCAASGYAFTNYLIEWVRQAPGKGLEWVGVNNPGSGGSNYNEKFKGRATISADNSKNTLYLQMNSLRAEDTAVYYCARSGGFYFDYWGQGTLVTVSS
VL: DIQMTQSPSSLSASVGDRVTITCRASQSVLYSSNQKNYLAWYQQKPGKAPKLLIYYASSLQSGVPSRFSGSGSGTDFTLTISSLQPEDFATYYCHQYLSSDTFGQGTKVEIK
B3: V5H.g1L1glL2: Same as Version 5 except CDR L1 and CDR L2 reverted to human germline kappa locus sequences (antibody, V domains shown)
VH: EVQLVESGGGLVQPGGSLRLSCAASGYAFTNYLIEWVRQAPGKGLEWVGVNNPGSGGSNYNEKFKGRATISADNSKNTLYLQMNSLRAEDTAVYYCARSGGFYFDYWGQGTLVTVSS
VL: DIQMTQSPSSLSASVGDRVTITCRASQGISSYLAWYQQKPGKAPKLLIYYASSLQSGVPSRFSGSGSGTDFTLTISSLQPEDFATYYCHQYLSSDTFGQGTKVEIK

Assays:
[1] = tested on: TGF-beta extracellular domain (ECD); assay: Binding ELISA of chimeric and humanized 2G7 versions; conditions: for binding to TGF-beta of CDR mutants of hu2G7 Version 5 IgG: germline revertants / CDR H2 mutant
Experimental: DNA sequencing of the chimeric clone allowed identification of the CDR residues (Kabat et al., supra). Using oligonucleotide site-directed mutagenesis, all six of these CDR regions were introduced into a complete human framework (VL kappa subgroup I and VH subgroup III) contained on plasmid VX4 as previously described (Presta et al., Cancer Research, 57: 4593-4599 (1997)). Protein from the resultant “CDR-swap” was expressed and purified as above. Binding studies were performed to compare the two versions. Briefly, a NUNC MAXISORP™ plate was coated with 1 microgram per ml of TGF-beta extracellular domain (ECD; produced as described in WO 90/14357) in 50 mM of carbonate buffer, pH 9.6, overnight at 4° C., and then blocked with ELISA diluent (0.5% BSA, 0.05% POLYSORBATE™ 20, PBS) at room temperature for 1 hour. Serial dilutions of samples in ELISA diluent were incubated on the plates for 2 hours. After washing, bound Fab fragment was detected with biotinylated murine anti-human kappa antibody (ICN 634771) followed by streptavidin-conjugated horseradish peroxidase (Sigma) and using 3,3′,5,5′-tetramethyl benzidine (Kirkegaard & Perry Laboratories, Gaithersburg, Md.) as substrate. Absorbance was read at 450 nm.

[2] = tested on: TGF-beta; assay: Mouse messangial cell proliferation assay; assay type: cell-based; conditions: antibody 20 μg/ml; TGF-beta at 1 ng/ml level; 48 hours
Experimental: A mouse messangial cell proliferation assay was used to test a control antibody and several humanized antibodies (V5H.V5L, V5H.gIL2, H2NI.V5L, V5H.gIL1gIL2, and H2N1.gIL gIL2). The protocol is as follows:
On day 1: Mouse messangial cells were plated on a 96-well plate in Media (a 3:1 mixture of Dulbecco's modified Eagle's medium and Ham's F12 medium-95%-fetal bovine serum-5%-supplemented with 14 mM HEPES buffer) and grown overnight.
On day 2: TGF-beta with three different concentrations (100 ng, 10 ng and 1 ng) and five different types of humanized TGF antibody (20 μg/ml) were diluted in serum-free Media and added to the cells. A mouse TGF antibody was used as a control (2G7).
On day 4: After 48 hours incubation, 20 μl of reaction buffer (CELLTITER 96® AQUEOUS ONE SOLUTION REAGENT™ containing a tetrazolium compound 3-(4,5-dimethylthiazol-2-yl)-5-(3-carboxymethoxyphenyl)-2-(4-sulfophenyl)-2H-tetrazolium, inner salt, and an electron coupling reagent (phenazine ethosulfate) (Promega Inc. Cat number G3580)) was added to each well of the plate and allowed to incubate for 2 hours. The absorbance (OD) was measured at 490 nm.

[3] = tested on: TGF-beta1 through -beta3; assay: 3T3 cell proliferation assay, neutralization of TGF-betas; assay type: cell-based, mouse; conditions: 3T3 cells stimulated with one of three TGF-betas
Experimental: Various humanized antibodies were tested for their activity in neutralizing various TGF-betas versus 2G7 using the 3T3 cell line from fibroblasts of disaggregated Swiss mouse embryos stimulated with one of three TGF-betas in vitro and then their proliferation was measured as activity.

| Molecule | binding to TGF-beta compared to chimeric 2G7 Fab fragment ([1]; humanized versions (FR mutants)) | blocking of cell inhibition induced by TGF-beta [2] | binding to TGF-beta of CDR mutants of hu2G7 Version 5 IgG [1] | activity in neutralizing TGF-betas versus 2G7 [3] |
| --- | --- | --- | --- | --- |
| B1 | binding restored to that of the original chimeric 2G7 Fab fragment | blocked cell inhibition similarly to the control |  |  |
| B2 |  |  | bound to TGF-beta as well as V5H.V5L | comparable activity, with V5H.gIL2 being the least effective |
| B3 |  |  | did not bind as well as the chimera |  |
